Test results: patent US8535662B2, “Apyrase therapy for bleeding conditions” (Apt Therapeutics, Inc., priority 2010, dated 2013)
Marks after values point to notes of the source that are not given here.

What was measured:
rabbits = conditions: rabbit, in vivo
Procedure: Rabbits were anesthetized with intramuscular ketamine/xylazine followed by inhaled isoflurane to maintain a stable level of surgical anesthesia for 5 h. Arterial blood pressure was monitored continuously and values for pressure and heart rate recorded at intervals after administration of apyrase agent and/or other antiplatelet agents. Venous blood samples were collected at baseline (before agents were given) for analysis of CBC and chemistry and samples were obtained serially for assay of prothrombin time (PT) and activated partial prothromboplastin time (aPTT).

[1] = tested on: pigs, coronary injury with stenting; assay: Coronary injury (balloon overstretch) and bare metal stent in pigs: platelet accumulation and luminal stenosis (Example 6); type: in vivo, pig; conditions: 30 days after stenting, six measurements in two pigs
Procedure: Coronary injury with or without stenting in pigs is regarded as the best preclinical model for simulation of human angioplasty (Touchard, A. G., et al., Thromb. Res. (2007) 120:477-484). One coronary artery was injured by balloon overstretch in each pig and the site of injury including some overlap with the non-injured vessel was covered with a single bare metal stent (BMS).
Accumulation of ^111In-labeled autologous platelets on the stents over the first 24 h was measured in 4/6 pigs in each group. Radiolabeled platelets were injected 15 min before the coronary catheterization and the hearts perfusion-fixed after 24 h to obtain the stented vessel segment for counting radiolabeled platelets.

[2] = tested on: rats, thromboembolic stroke (MCA occlusion); assay: Rat model of thromboembolic stroke (MCA occlusion by preformed clot), apyrase agent plus aspirin (Example 2); type: in vivo; conditions: for Neurological deficits, median (interquartile range 25th to 75th), modified Bederson score: n = 10
Procedure: In this study, four experimental groups were included (n=10):
(1) control, saline injected gastrically;
(2) aspirin, 1.25 mg/kg (equivalent to 100 mg/day dose in human) injected gastrically once a day, starting 3 days prior to middle cerebral artery (MCA) occlusion and also MCA occlusion until the end of each experiment;
(3) apyrase, dose at 0.75 mg/kg injected IV at 2 h after MCA occlusion;
(4) combination group, aspirin and apyrase agent.
In this clinically relevant embolic model, ischemic brain injury was induced by embolizing preformed clots into the middle cerebral artery (MCA). Ten microliters of blood were withdrawn into a catheter and retained for 15 min to allow formation of a clot. Once the clot was formed, the catheter was advanced 17 mm in the ICA until its tip was 1-2 mm away from the origin of the MCA. The preformed clot in the catheter was then injected, and the catheter was removed. […]
Infarct was measured in the brain section stained with 2,3,5-triphenyltetrazolium chloride (TTC) solution. The infarct volume was expressed as a percentage of the total volume from the ipsilateral hemisphere.
Brain swelling (edema) was determined using a formula: edema=(the volume of the right hemisphere—the volume of the left hemisphere)/the volume of the left hemisphere.
Neurological deficits were determined using a modified Bederson's scoring system as following: 0: no observable deficit; 1: forelimb flexion; 2: forelimb flexion plus decreased resistance to lateral push; 3: unidirectional circling; 4: unidirectional circling plus decreased level of consciousness.
Hemorrhagic transformation was quantified by detection of extracellular hemoglobin content in brain homogenates using Drabkin's reagents.

[3] = tested on: C57BL/6J mice, myocardial ischemia; assay: Mouse model of cardiac ischemia/reperfusion injury (Example 8); type: in vivo; conditions: 24 hr reperfusion
Procedure: A mouse model of cardiac ischemia/reperfusion injury was used to determine the effect of apyrase agent on infarct size. Myocardial ischemia was produced in C57BL/6J mice via left anterior coronary artery ligation. Mice were treated with apyrase agent (1 mg/kg, IV) or saline 5 min prior to 60 min of experimentally-induced myocardial ischemia or 50 min after ischemia (n=6-8 per group). After 24 hr of reperfusion, hearts were excised and area at risk and infarct size were determined by Evan's blue and triphenyltetrazolium staining.

[4] = Pharmacokinetic study in rabbits, single IV bolus (serum ADPase and ATPase activities); type: in vivo, rabbit
Procedure: Pharmacokinetic studies of apyrase agent (sol CD39L3 R67G T69R) were conducted in rabbits where a single bolus was injected intravenously. At various time points (10 min to 24 h after injection), rabbits were bled by cardiac puncture and serum was prepared. Serum samples were examined for both ADPase and ATPase activities.

[5] = tested on: rats, embolic stroke (thrombus injection into internal carotid artery); assay: Embolic stroke model in rats, apyrase agent with or without r-tPA (Example 1); type: in vivo, rat; conditions: brains at 3 days
Procedure: The following groups were included in this study:
(1) control (saline treated), n=11;
(2) apyrase agent at 0.75 mg/kg, n=4;
(3) apyrase agent at 2.25 mg/kg, n=4;
(4) r-tPA (at 10 mg/kg), n=4;
(5) apyrase agent at 0.75 mg/kg plus r-tPA (10 mg/kg) and
(6) apyrase agent at 2.25 mg/kg plus r-tPA (10 mg/kg) (n=10).
All the treatments were initiated at 2 h following thrombus injection into internal carotid artery. Infarct volume and behavioral deficit were determined at day 3 after the stroke.

B1: sol CD39L3 R67G T69R (protein)
chain: EVLPPGLKYGIVLDAGSSGTRVYVYQWPAEKENNTGVVSQTFKCSVKGSGISSYGNNPQDVPRAFEECMQKVKGQVPSHLHGSTPIHLGATAGMRLLRLQNETAANEVLESIQSYFKSQPFDFRGAQIISGQEEGVYGWITANYLMGNFLEKNLWHMWVHPHGVETTGALDLGGASTQISFVAGEKMDLNTSDIMQVSLYGYVYTLYTHSFQCYGRNEAEKKFLAMLLQNSPTKNHLTNPCYPRDYSISFTMGHVFDSLCTVDQRPESYNPNDVITFEGTGDPSLCKEKVASIFDFKACHDQETCSFDGVYQPKIKGPFVAFAGFYYTASALNLSGSFSLDTFNSSTWNFCSQNWSQLPLLLPKFDEVYARSYCFSANYIYHLFVNGYKFTEETWPQIHFEKEVGNSSIAWSLGYMLSLTNQIPAESPLIRLPIEPPV
modifications: glycosylated; synthetically constructed apyrase
PT (rabbits): Neither PT nor aPTT were changed significantly
aPTT (rabbits): Neither PT nor aPTT were changed significantly
blood pressure (rabbits): Neither blood pressure nor heart rate changed significantly
heart rate (rabbits): Neither blood pressure nor heart rate changed significantly
average luminal stenosis [1]: 19.8±2%
Neurological deficits, median (interquartile range 25th to 75th), modified Bederson score ([2]; 4 h after MCA occlusion): 3
Neurological deficits, median (interquartile range 25th to 75th), modified Bederson score ([2]; 4 h after MCA occlusion, listed as Apyrase agent): 3 (2-3)
Neurological deficits, median (interquartile range 25th to 75th), modified Bederson score ([2]; 8 h after MCA occlusion): improved
Neurological deficits, median (interquartile range 25th to 75th), modified Bederson score ([2]; 8 h after MCA occlusion, listed as Apyrase agent): 2 (2-3)*^
infarct volume, percentage of the total volume of the ipsilateral hemisphere (mean±SD) ([2]; 24 h after MCA occlusion, aspirin 1.25 mg/kg gastrically once a day from 3 days prior, apyrase 0.75 mg/kg IV at 2 h): 17.89±2.35%
Neurological deficits, median (interquartile range 25th to 75th), modified Bederson score ([2]; 24 h after MCA occlusion): significantly less severe than the control group
Neurological deficits, median (interquartile range 25th to 75th), modified Bederson score ([2]; 24 h after MCA occlusion, listed as Apyrase agent): 1.5 (1-2)*
extracellular hemoglobin content in brain homogenates (hemorrhagic transformation, Drabkin's reagents) ([2]; 24 h after ischemic injury): 0.89±0.08
brain edema (brain swelling) ([2]; 24 h after ischemic injury, aspirin 1.25 mg/kg, apyrase 0.75 mg/kg IV at 2 h): 6.70±0.93%
reduction of infarct size compared to the control group ([3]; 1 mg/kg IV 5 minutes prior to ischemia, 60 min ischemia): approximately 50%
reduction of infarct size ([3]; 1 mg/kg IV 50 min after ischemia): approximately 50%
half life in the circulation [4]: approximately 24 h
Hemorrhage #/total animals ([5]; apyrase agent 0.75 mg/kg (alone or plus r-tPA 10 mg/kg)): 0/4
Hemorrhage #/total animals ([5]; apyrase agent 2.25 mg/kg (alone or plus r-tPA 10 mg/kg)): 0/4
